Paper PMC10770124, “Cryo-EM structures of human SID-1 transmembrane family proteins and implications for their low-pH-dependent RNA transport activity” (Cell Research, 2023)

B1: human SIDT2, full-length (purified, used for cryo-EM and blue native gel) (natural protein, UniProt Q8NBJ9 19-832, looked up)
chain: HLGVLGPKNVSQKDAEFERTYVDEVNSELVNIYTFNHTVTRNRTEGVRVSVNVLNKQKGAPLLFVVRQKEAVVSFQVPLILRGMFQRKYLYQKVERTLCQPPTKNESEIQFFYVDVSTLSPVNTTYQLRVSRMDDFVLRTGEQFSFNTTAAQPQYFKYEFPEGVDSVIVKVTSNKAFPCSVISIQDVLCPVYDLDNNVAFIGMYQTMTKKAAITVQRKDFPSNSFYVVVVVKTEDQACGGSLPFYPFAEDEPVDQGHRQKTLSVLVSQAVTSEAYVSGMLFCLGIFLSFYLLTVLLACWENWRQKKKTLLVAIDRACPESGHPRVLADSFPGSSPYEGYNYGSFENVSGSTDGLVDSAGTGDLSYGYQGRSFEPVGTRPRVDSMSSVEEDDYDTLTDIDSDKNVIRTKQYLYVADLARKDKRVLRKKYQIYFWNIATIAVFYALPVVQLVITYQTVVNVTGNQDICYYNFLCAHPLGNLSAFNNILSNLGYILLGLLFLLIILQREINHNRALLRNDLCALECGIPKHFGLFYAMGTALMMEGLLSACYHVCPNYTNFQFDTSFMYMIAGLCMLKLYQKRHPDINASAYSAYACLAIVIFFSVLGVVFGKGNTAFWIVFSIIHIIATLLLSTQLYYMGRWKLDSGIFRRILHVLYTDCIRQCSGPLYVDRMVLLVMGNVINWSLAAYGLIMRPNDFASYLLAIGICNLLLYFAFYIIMKLRSGERIKLIPLLCIVCTSVVWGFALFFFFQGLSTWQKTPAESREHNRDCILLDFFDDHDIWHFLSSIAMFGSFLVLLTLDDDLDTVQRDKIYVF
modifications: N-glycosylation (six sites on the ECD resolved in the EM map); disulfide bonds
notes: SIDT2, human, full-length; Homodimer in the cryo-EM map; the self rows mean protomer with protomer; also called SID-1 transmembrane family member 2; source: cloned, expressed and purified
B2: human SIDT1, full-length (purified, used for cryo-EM and blue native gel) (natural protein, UniProt Q9NXL6 20-827, looked up)
chain: ASPGHPAKSPRQPPAPRRDPFDAARGADFDHVYSGVVNLSTENIYSFNYTSQPDQVTAVRVYVNSSSENLNYPVLVVVRQQKEVLSWQVPLLFQGLYQRSYNYQEVSRTLCPSEATNETGPLQQLIFVDVASMAPLGAQYKLLVTKLKHFQLRTNVAFHFTASPSQPQYFLYKFPKDVDSVIIKVVSEMAYPCSVVSVQNIMCPVYDLDHNVEFNGVYQSMTKKAAITLQKKDFPGEQFFVVFVIKPEDYACGGSFFIQEKENQTWNLQRKKNLEVTIVPSIKESVYVKSSLFSVFIFLSFYLGCLLVGFVHYLRFQRKSIDGSFGSNDGSGNMVASHPIAASTPEGSNYGTIDESSSSPGRQMSSSDGGPPGQSDTDSSVEESDFDTMPDIESDKNIIRTKMFLYLSDLSRKDRRIVSKKYKIYFWNIITIAVFYALPVIQLVITYQTVVNVTGNQDICYYNFLCAHPLGVLSAFNNILSNLGHVLLGFLFLLIVLRRDILHRRALEAKDIFAVEYGIPKHFGLFYAMGIALMMEGVLSACYHVCPNYSNFQFDTSFMYMIAGLCMLKLYQTRHPDINASAYSAYASFAVVIMVTVLGVVFGKNDVWFWVIFSAIHVLASLALSTQIYYMGRFKIDLGIFRRAAMVFYTDCIQQCSRPLYMDRMVLLVVGNLVNWSFALFGLIYRPRDFASYMLGIFICNLLLYLAFYIIMKLRSSEKVLPVPLFCIVATAVMWAAALYFFFQNLSSWEGTPAESREKNRECILLDFFDDHDIWHFLSATALFFSFLVLLTLDDDLDVVRRDQIPVF
modifications: N-glycosylation (three sites resolved in the EM map); disulfide bonds C130-C222 and C212-C271
notes: SIDT1, human, full-length; Homodimer in the cryo-EM map; the self rows mean protomer with protomer; also called SID-1 transmembrane family member 1; source: cloned, expressed and purified

Assays:
[1] = molecular target: truncated extracellular domain of SIDT2 (SIDT2^ECD) (human); assay: AUC; sedimentation velocity (SV-AUC) of the truncated ECDs in solution, no RNA
[2] = molecular target: the molecule itself; assay: cryo-EM structure; single-particle cryo-EM of SIDT1 (3.33 Å) and SIDT2 (3.17 Å); homodimers with a two-fold axis

Molecule | stoichiometry N [1] | stoichiometry N [2]
truncated extracellular domain of SIDT2 (SIDT2^ECD) (domain or fragment) | 2 | 
B1 |  | 2
B2 |  | 2
